One protein from paper PMC11077089, “Molecular basis of A. thaliana KEOPS complex in biosynthesizing tRNA t^6A” (Nucleic Acids Research, 2024) can be followed below.

Substrate in the data set: Nc1ncnc2c1ncn2[C@@H]1O[C@H](COP(=O)(O)OP(=O)(O)OP(=O)(O)O)[C@@H](O)[C@H]1O
In words: NADH-coupled ATPase assay (pyruvate kinase / lactate dehydrogenase), Michaelis-Menten. Format: biochemical, Arabidopsis thaliana. To be noted: no tRNA, 2 μM protein, 0–50 μM ATP, 5 mM MgCl2, pH 7.5, 25°C, BUD32 site.

B1: AtKEOPS (wild-type KEOPS dimer, P2K2B2C2) (Arabidopsis thaliana) (protein)
chain: MDCEENVRDESLVLIKQGAEARVFESTFAGRRSIVKERFSKKYRHPILDAKLTLKRLNAEARCMTKARKLGVCTPVLYAVDTLLHSLTLEYIEGVSVKDIFLEFGTNGVVEERLDDVAAQIGAAIAKLHDGGLAHGDLTTSNMLVRSGTNQLVLIDFGLSVTSTLPEDKAVDLYVLERALLSMHSSCGNVMDRILTAYRKSSKQWSATFNKLAQVRQRGRKRTMIG
notes: reconstituted from KAE1-PCC1-6His and BUD32-CGI121-6His expressed in E. coli; SEC ~200 kDa dimer; some N-terminal KAE1 degradation; with tRNA N6-adenosine threonylcarbamoyltransferase KAE1; EKC/KEOPS complex subunit CGI121; EKC/KEOPS complex subunit PCC1
The Km is the substrate concentration at which the rate is half of its maximum. For the protein B1, the Km stood at 0.95 ± 0.053 µM and the kcat worked out at 0.019 ± 0.00073 s^–1.
